According to patent publication US20250076311A1 (Chugai, published 2025):
Residue numbers refer to the chain shown, from its start. Names and notes keep the numbering of the source. Values belong to the binder of their own block, whether it stands above or below them.

Key:
[1] = biological target: T1, cynomolgus monkey FcγRIIa1 extracellular domain with C-terminal His-tag (cynomolgus monkey); test: SPR, KD(SG1)/KD(variant)
T1 construct: also called cyno FcgRIIa1; cynoFcγRIIa1
T1 chain: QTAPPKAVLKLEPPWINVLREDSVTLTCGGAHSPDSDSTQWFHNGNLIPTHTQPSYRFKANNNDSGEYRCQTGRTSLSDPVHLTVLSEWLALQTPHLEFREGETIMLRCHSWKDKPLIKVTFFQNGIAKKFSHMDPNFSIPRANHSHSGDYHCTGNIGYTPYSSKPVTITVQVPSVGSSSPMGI
Protocol: (§1) The kinetic analysis of interactions between these antibodies and FcγR was carried out using BIACORE® T200 or BIACORE® 4000 (GE Healthcare). HBS-EP+ (GE Healthcare) was used as the running buffer, and the measurement temperature was set to 25° C. […] After the measurement, the antibody captured on the chip was washed off by allowing reaction with 10 mM glycine-HCl, pH1.5 and 25 mM NaOH so that the chip was regenerated and used repeatedly. The sensorgrams obtained as measurement results were analyzed by the 1:1 Langmuir binding model using the BIACORE® Evaluation Software to calculate the binding rate constant ka (L/mol/s) and dissociation rate constant kd (1/s), and the dissociation constant KD (mol/L) was calculated from these values. […] Regarding such interactions, KD values were calculated using the following 1:1 binding model described in BIACORE® T100 Software Handbook BR1006-48 Edition AE.

[2] = biological target: T2, cynomolgus monkey FcγRIIa2 extracellular domain with C-terminal His-tag (cynomolgus monkey); test: SPR, KD(SG1)/KD(variant)
T2 construct: also called cyno FcgRIIa2; cynoFcγRIIa2
T2 chain: T1 chain with P95T, T121A, I127K, A128S, K130N, D135N, R142Q
Protocol: as §1

[3] = biological target: T3, cynomolgus monkey FcγRIIIaS extracellular domain with C-terminal His-tag (cynomolgus monkey, UniProt Q8SPW2 21-206 at identity 1.00)); test: SPR, KD(SG1)/KD(variant)
T3 construct: also called cyno FcgRIIIaS; cynoFcγRIIIaS
T3 chain: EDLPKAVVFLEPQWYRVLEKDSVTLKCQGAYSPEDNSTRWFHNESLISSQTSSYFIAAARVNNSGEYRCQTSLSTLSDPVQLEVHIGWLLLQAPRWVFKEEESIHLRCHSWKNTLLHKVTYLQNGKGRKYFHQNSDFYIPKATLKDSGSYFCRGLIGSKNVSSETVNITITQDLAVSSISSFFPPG
Protocol: as §1

[4] = biological target: T4, human FcγRIIIaV extracellular domain with C-terminal His-tag (human, UniProt P08637 17-208); test: SPR, KD(SG1)/KD(variant)
T4 construct: also called human FcgRIIIaV
Protocol: as §1

[5] = biological target: T3, cynomolgus monkey FcγRIIIaS …; test: SPR, antibody captured, FcγR analyte
[6] = biological target: T5, human FcγRIIaR extracellular domain with C-terminal His-tag (human, UniProt P12318 34-217); test: SPR, antibody captured, FcγR analyte
T5 construct: also called human FcgRIIaR; FcγRIIa (type R)
T5 chain: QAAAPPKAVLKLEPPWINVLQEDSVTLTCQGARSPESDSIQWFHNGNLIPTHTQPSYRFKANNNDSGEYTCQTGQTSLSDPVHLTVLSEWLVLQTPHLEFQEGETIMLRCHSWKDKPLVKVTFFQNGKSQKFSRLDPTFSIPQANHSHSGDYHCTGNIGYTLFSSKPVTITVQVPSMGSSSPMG

[7] = biological target: T6, human FcγRIIaH extracellular domain, C-terminal His-tag (human, UniProt P12318 34-217); test: SPR, anti-kappa capture; KD(SG1)/KD(variant)
T6 construct: also called FcgRIIaH; human FcγRIIa (type H)
T6 sequence: T5 chain with R134H

[8] = biological target: T7, cynomolgus monkey FcγRIIa2 extracellular domain, His-tagged (cynomolgus monkey); test: SPR Biacore, KD(SG1)/KD(variant)
T7 construct: also called cyno FcγRIIa2; cynoFcgRIIa2; not shown: C-terminal His-tag
T7 chain: T1 chain with P95T, T121A, I127K, A128S, K130N, D135N, R142Q

[9] = biological target: T8, cynomolgus monkey FcγRIIa3 extracellular domain, His-tagged (cynomolgus monkey); test: SPR Biacore, KD(SG1)/KD(variant)
T8 construct: also called cyno FcγRIIa3; cynoFcgRIIa3; not shown: C-terminal His-tag
T8 chain: T1 chain with P95T, T121A, A128S, H133P, D135N

[10] = biological target: T9, human FcγRIIaR extracellular domain, His-tagged (human, UniProt P12318 34-217); test: SPR Biacore, KD(SG1)/KD(variant)
T9 construct: also called human FcγRIIa (type R); FcgRIIaR; not shown: C-terminal His-tag
T9 chain: T5 chain

[11] = biological target: T10, human FcγRIIb extracellular domain, His-tagged (human, UniProt P31994 43-217); test: SPR Biacore, KD(SG1)/KD(variant)
T10 construct: also called FcgRIIb (human); not shown: C-terminal His-tag
T10 sequence: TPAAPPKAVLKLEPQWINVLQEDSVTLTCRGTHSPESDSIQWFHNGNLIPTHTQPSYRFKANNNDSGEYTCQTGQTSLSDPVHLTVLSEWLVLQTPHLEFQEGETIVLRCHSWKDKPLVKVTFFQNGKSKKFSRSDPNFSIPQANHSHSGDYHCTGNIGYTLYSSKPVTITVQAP

[12] = biological target: T11, cynomolgus monkey FcγRIIb extracellular domain, His-tagged (cynomolgus monkey); test: SPR Biacore, antibody captured, FcgR analyte
T11 construct: also called cyno FcγRIIb; cynoFcγRIIb; not shown: C-terminal His-tag
T11 chain: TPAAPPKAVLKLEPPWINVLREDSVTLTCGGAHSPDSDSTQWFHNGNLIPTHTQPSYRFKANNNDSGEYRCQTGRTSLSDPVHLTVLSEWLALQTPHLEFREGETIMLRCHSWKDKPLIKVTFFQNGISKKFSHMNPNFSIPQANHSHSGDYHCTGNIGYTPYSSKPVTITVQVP

[13] = biological target: T7, cynomolgus monkey FcγRIIa2 …; test: SPR Biacore, antibody captured, FcgR analyte
[14] = biological target: T12, human FcγRIIIaV extracellular domain, His-tagged (human, UniProt P08637 17-208); test: SPR Biacore, antibody captured, FcgR analyte
T12 construct: also called FcgRIIIaV; not shown: C-terminal His-tag
T12 sequence (P08637 17-208 F176V): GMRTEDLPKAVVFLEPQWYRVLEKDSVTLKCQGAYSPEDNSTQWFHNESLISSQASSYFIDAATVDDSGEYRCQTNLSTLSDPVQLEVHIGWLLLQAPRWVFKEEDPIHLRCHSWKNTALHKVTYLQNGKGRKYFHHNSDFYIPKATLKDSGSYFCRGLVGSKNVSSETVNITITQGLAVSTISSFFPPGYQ

T4 sequence (P08637 17-208 F176V): as above

B2: MS103240H795-TT91/M103202L1045-SK1 (antibody)
heavy: QVQLVESGGGLVQPGGSLRLSCAVSGIDLSHDDISWVRQAPGKGLEWVSIISYAGSTYYASWAKGRLTISKDTSKNQVVLTMTNMDPVDTATYYCARGVPAYSHGGDLWGQGTLVTVSSASTKGPSVFPLAPSSKSTSGGTAALGCLVKDYFPEPVTVSWNSGALTSGVHTFPAVLQSSGLYSLSSVVTVPSSSLGTQTYICNVNHKPSNTKVDKKVEPKSCDKTHTCPPCPAPEYLGGDSVFLFPPKPKDVLMISRTPEVTCVVIDVSHEDPEVKFNWYVDGVEVHNAKTKPREEQYNSTYRVVSVLPVLHRDWLNGKEYKCKVSNKALPKPIEKTISKAKGQRREPQVYTLPPSREEMTKNQVSLTCLVKGFYPSDIAVEWESNGQPENNYKTTPPVLDSDGSFFLYSKLTVDKSRWQQGNVFSCSVLHEALHAHTTRKELSLSP
light: DIVMTQSPATLSLSPGERATLSCTTSQSVYHENWLSWFQQKPGQPPKLLIYWASTLAYGVPSRFSGSGSGTDFTLTISSLQPEDAATYYCAGGYGGGRYAFGQGTKVEIKRTVAAPSVFIFPPSDEQLKSGTASVVCLLNNFYPREAKVQWKVDNALQSGNSQESVTEQDSKDSTYSLSSTLTLSKADYEKHKVYACEVTHQGLSSPVTKSFNRGEC
KD fold (SG1 = 1) [7]: 0.02 fold

B4: M103205H795-MY043/M103202L889-SK1 (antibody, human IgG1, kappa, name in EU numbering)
heavy: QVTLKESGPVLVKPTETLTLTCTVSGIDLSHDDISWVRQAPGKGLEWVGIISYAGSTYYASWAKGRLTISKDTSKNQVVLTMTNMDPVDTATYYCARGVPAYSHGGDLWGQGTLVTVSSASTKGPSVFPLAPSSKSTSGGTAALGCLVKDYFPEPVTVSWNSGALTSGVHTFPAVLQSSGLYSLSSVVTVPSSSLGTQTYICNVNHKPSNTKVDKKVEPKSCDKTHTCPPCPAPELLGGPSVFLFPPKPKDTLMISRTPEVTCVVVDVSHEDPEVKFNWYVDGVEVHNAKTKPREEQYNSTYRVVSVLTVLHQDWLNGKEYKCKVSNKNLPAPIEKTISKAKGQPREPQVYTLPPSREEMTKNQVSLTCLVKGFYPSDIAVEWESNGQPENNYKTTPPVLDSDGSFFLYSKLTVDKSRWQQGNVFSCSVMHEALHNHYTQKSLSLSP
light: B2 light with T25S, E32A
notes: Substitution introduced into M103205H795-SG1; EU numbering
KD fold (SG1 = 1) [9]: 0.5 fold
Kd [13]: 6100 nM
Kd [14]: 1200 nM

B5: MS103240H795-TT68/M103202L1045-SK1 (antibody)
heavy: B2 heavy with Y236L, I266V, R345P, D415K, L430M, T438Y
light: B2 light
notes: copies: 2 + 2
KD fold (SG1 = 1) [7]: 0.006 fold

B7: M103205H795-MY015/M103202L889-SK1 (antibody, human IgG1, kappa, name in EU numbering)
heavy: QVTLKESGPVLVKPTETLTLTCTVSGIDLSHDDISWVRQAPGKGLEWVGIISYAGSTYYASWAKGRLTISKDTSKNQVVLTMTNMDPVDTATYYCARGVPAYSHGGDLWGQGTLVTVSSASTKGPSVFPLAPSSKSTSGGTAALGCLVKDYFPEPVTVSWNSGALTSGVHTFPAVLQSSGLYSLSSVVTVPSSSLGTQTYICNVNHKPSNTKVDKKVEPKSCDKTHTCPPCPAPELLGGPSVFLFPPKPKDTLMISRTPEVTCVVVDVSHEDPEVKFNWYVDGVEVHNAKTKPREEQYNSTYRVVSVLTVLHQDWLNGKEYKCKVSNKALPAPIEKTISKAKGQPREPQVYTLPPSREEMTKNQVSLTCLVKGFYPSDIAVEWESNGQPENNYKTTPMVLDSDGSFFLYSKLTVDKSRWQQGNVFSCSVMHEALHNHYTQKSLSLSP
light: B2 light with T25S, E32A
notes: as for B4
Kd [12]: 600 nM

Now from value to binder:

KD fold (SG1 = 1) [1]: 2.3 fold
KD fold (SG1 = 1) [2]: 2 fold
KD fold (SG1 = 1) [3]: 0.06 fold
KD fold (SG1 = 1) [4]: 0.07 fold
Kd [5]: 4300 nM
Kd [6]: 22000 nM
B1: MS1032LO06-PK57 (antibody, human IgG1, kappa)
heavy: QVTLKESGPVLVKPTETLTLTCTVSGIDLSHDDISWVRQAPGKGLEWVGIISYAGSTYYASWAKGRLTISKDTSKNQVVLTMTNMDPVDTATYYCARGVPAYSHGGDLWGQGTLVTVSSASTKGPSVFPLAPSSKSTSGGTAALGCLVKDYFPEPVTVSWNSGALTSGVHTFPAVLQSSGLYSLSSVVTVPSSSLGTQTYICNVNHKPSNTKVDKKVEPKSCDKTHTCPPCPAPELLNGPSVFLFPPKPKDTLMISRTPEVTCVVVDVSDEDPEVKFNWYVDGVEVHNAKTKPREEQYNSTYRVVSVLTVLHRDWLNGKEYKCKVSNKALPKPIEKTISKAKGQPREPQVYTLPPSREEMTKNQVSLTCLVKGFYPSDIAVEWESRGQPENNYKTTPPVLDSDGSFFLYSKLTVRKSRWQQGNVFSCSVMHEALHNHYTQKSLSLSP
light: B2 light with T25S, E32A
notes: MY201 with Q311R/N384R/D413R; also called MS103205H795-PK57; M103205H795-MY57; copies: 2 + 2

KD fold (SG1 = 1) [8]: 1.6 fold
KD fold (SG1 = 1) [9]: 3.1 fold
KD fold (SG1 = 1) [10]: 3.9 fold
KD fold (SG1 = 1) [11]: 4.5 fold
Kd [12]: 680 nM
B3: M103205H795-MY017/M103202L889-SK1 (antibody, human IgG1, kappa, name in EU numbering)
heavy: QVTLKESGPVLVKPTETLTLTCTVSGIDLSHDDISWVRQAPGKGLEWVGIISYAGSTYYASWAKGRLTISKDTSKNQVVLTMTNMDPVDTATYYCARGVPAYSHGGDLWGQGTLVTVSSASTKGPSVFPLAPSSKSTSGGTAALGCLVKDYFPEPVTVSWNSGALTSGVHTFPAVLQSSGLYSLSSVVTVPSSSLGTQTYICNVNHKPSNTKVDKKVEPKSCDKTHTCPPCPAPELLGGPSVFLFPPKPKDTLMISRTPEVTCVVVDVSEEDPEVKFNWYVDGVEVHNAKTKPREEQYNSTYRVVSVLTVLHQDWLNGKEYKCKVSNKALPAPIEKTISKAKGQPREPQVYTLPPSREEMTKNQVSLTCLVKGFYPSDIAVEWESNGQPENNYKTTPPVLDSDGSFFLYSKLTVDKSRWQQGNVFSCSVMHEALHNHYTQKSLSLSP
light: B2 light with T25S, E32A
notes: as for B4

Kd [14]: 550 nM
B6: M103205H795-MY038/M103202L889-SK1 (antibody, human IgG1, kappa, name in EU numbering)
heavy: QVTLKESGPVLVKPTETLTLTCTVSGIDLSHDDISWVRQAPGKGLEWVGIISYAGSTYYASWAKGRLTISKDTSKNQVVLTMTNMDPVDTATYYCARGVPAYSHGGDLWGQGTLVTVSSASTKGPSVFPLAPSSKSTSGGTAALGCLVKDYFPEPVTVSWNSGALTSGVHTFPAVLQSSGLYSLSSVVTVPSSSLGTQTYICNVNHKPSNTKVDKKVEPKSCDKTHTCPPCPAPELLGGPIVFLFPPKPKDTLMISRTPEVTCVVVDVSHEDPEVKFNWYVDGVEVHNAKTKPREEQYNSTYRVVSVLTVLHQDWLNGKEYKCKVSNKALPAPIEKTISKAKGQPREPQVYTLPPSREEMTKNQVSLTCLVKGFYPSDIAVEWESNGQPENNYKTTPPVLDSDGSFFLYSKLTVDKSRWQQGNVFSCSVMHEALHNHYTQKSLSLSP
light: B2 light with T25S, E32A
notes: as for B4
